Experimental data from PMC9927937, “Loss of LGR4/GPR48 causes severe neonatal salt wasting due to disrupted WNT signaling altering adrenal zonation” (The Journal of Clinical Investigation, 2023).

What was measured:
[1] = target: HA-tagged LGR4 nt-24 variant (-8 AA) (human, UniProt Q9BXB1-1 25-951, p.(His207_Arg214)); assay: cell-based or functional assay
[2] = target: HA-tagged LGR4, wild type (human, UniProt Q9BXB1-1 25-951); assay: cell-based or functional assay

- TOP-Flash luciferase reporter of Wnt/β-catenin signaling in HEK293T cells transfected with LGR4, stimulated by RSPO1 (fold over basal) [1]: 3.3 fold
- TOP-Flash luciferase reporter of Wnt/β-catenin signaling in HEK293T cells transfected with LGR4, stimulated by RSPO1 (fold over basal) [2]: 6.1 fold
B1: GFP-tagged RSPO1 (ligand, UniProt Q2MKA7 21-263, looked up)
chain: SRGIKGKRQRRISAEGSQACAKGCELCSEVNGCLKCSPKLFILLERNDIRQVGVCLPSCPPGYFDARNPDMNKCIKCKIEHCEACFSHNFCTKCKEGLYLHKGRCYPACPEGSSAANGTMECSSPAQCEMSEWSPWGPCSKKQQLCGFRRGSEERTRRVLHAPVGDHAACSDTKETRRCTVRRVPCPEGQKRRKGGQGRRENANRNLARKESKEAGAGSRRRKGQQQQQQQGTVGPLTSAGPA
